Data on seven molecules can be found in paper PMC5091643, “Dimer/monomer status and in vivo function of salt‐bridge mutants of the plant UV‐B photoreceptor UVR8” (The Plant Journal, 2016).

Data set [1] addresses T1, UV … LOCUS8 (UVR8), purified wild-type (Arabidopsis thaliana), Q9FN03.
T1 chain: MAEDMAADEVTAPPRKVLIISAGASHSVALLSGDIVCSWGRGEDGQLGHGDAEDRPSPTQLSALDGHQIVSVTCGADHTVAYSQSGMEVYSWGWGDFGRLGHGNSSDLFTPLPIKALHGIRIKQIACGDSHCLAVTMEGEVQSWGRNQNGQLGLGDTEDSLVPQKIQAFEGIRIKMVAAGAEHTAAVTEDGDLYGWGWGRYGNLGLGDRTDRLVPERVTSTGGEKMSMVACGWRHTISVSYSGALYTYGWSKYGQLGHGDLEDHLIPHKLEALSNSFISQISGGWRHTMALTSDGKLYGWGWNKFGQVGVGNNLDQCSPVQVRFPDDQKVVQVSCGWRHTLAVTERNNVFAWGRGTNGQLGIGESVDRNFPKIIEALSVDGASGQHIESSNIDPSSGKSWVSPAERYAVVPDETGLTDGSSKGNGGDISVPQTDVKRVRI
Description: SEC; purified proteins not exposed to UV-B; Superdex 200 HR10/30, 50 mM Tris pH 7.5, 150 mM NaCl, 1 mM β-ME, 0.02% sodium azide, 4°C; dimer to monomers. The conditions noted are these: remark: other sources report otherwise. Background: SEC sorts molecules by how far they enter the pores of the column.

Data set [2] addresses T2, GFP-UVR8 (wild type) in transgenic Arabidopsis uvr8-1 (Arabidopsis thaliana), Q9FN03.
T2 chain: T1 chain
Description: SDS-PAGE with non-boiled samples; whole cell extracts of transgenic uvr8-1 plants not exposed to UV-B; SDS-loading buffer, not boiled, 7.5% gel, blot with anti-UVR8. The conditions noted are these: remark: other sources report otherwise.

Data set [3] has as its target T2, GFP-UVR8 (wild type) in transgenic …. Description: cross-linking; DSP (4 mM, 30 min on ice) added to PBS extracts of transgenic uvr8-1 plants not exposed to UV-B; 10% SDS-PAGE without β-ME, blot with anti-UVR8. The conditions noted are these: remark: other sources report otherwise.
Data set [4] concerns the molecule itself. Description: SEC; purified proteins not exposed to UV-B; Superdex 200 HR10/30, 50 mM Tris pH 7.5, 150 mM NaCl, 1 mM β-ME, 0.02% sodium azide, 4°C; dimer to monomers.
Data set [5] addresses T3, GFP-UVR8 (wild type) transiently expressed in Nicotiana benthamiana (Arabidopsis thaliana), Q9FN03.
T3 chain: T1 chain
Description: SEC; GFP fusions transiently expressed in N. benthamiana, not exposed to UV-B, immunoprecipitated with anti-GFP microbeads; eluates on Superdex 200, fractions blotted with anti-GFP. The conditions noted are these: remark: other sources report otherwise.

Data set [6] deals with the molecule itself. Description: cross-linking; DSP (4 mM, 30 min on ice) added to PBS extracts of transgenic uvr8-1 plants not exposed to UV-B; 10% SDS-PAGE without β-ME, blot with anti-UVR8.

Numbering of substitutions follows the chain as printed. Names and notes keep the numbering of the source.

B1: UV … LOCUS8 (UVR8), purified wild-type, Q9FN03 1-440 (natural protein)
chain: T1 chain
Regarding B1, in data set [1], the stoichiometry N was 2.

B2: GFP-UVR8 (wild type) in transgenic Arabidopsis uvr8-1, Q9FN03 1-440 (natural protein)
chain: T1 chain
In the case of B2, the stoichiometry N in data set [2] and in data set [3] was 2 throughout.

B3: UVR8^R286K, purified (natural protein, Arabidopsis thaliana, UniProt Q9FN03 1-440, looked up)
chain: T1 chain with R286K
notes: UV … LOCUS8 (UVR8), Arabidopsis thaliana; source: E. coli, purified as described previously (Christie et al., 2012)
Regarding B3, the “stoichiometry N” value in data set [4] came out at 2.

B4: GFP-UVR8 (wild type) transiently expressed in Nicotiana benthamiana, Q9FN03 1-440 (natural protein)
chain: T1 chain
In the case of B4, in data set [5], the stoichiometry N came out at 2.

B5: GFP-UVR8^R146A in transgenic Arabidopsis uvr8-1 (natural protein, Arabidopsis thaliana, UniProt Q9FN03 1-440, looked up)
chain: T1 chain with R146A
notes: UV … LOCUS8 (UVR8), Arabidopsis thaliana; Sub-cloned into pEZR(K)L-C downstream of eGFP; also called line 9; source: transgenic Arabidopsis uvr8-1 plants (CaMV 35S promoter), in whole cell extract; not shown: eGFP, N-terminal, kept
For the molecule B5, the “stoichiometry N” value in data set [6] amounted to 2.

B6: UVR8^R146A, purified (natural protein, Arabidopsis thaliana, UniProt Q9FN03 1-440, looked up)
chain: T1 chain with R146A
notes: as for B3
For B6, in data set [4], the “stoichiometry N” value was 2.

B7: GFP-UVR8^R286K in transgenic Arabidopsis uvr8-1 (natural protein, Arabidopsis thaliana, UniProt Q9FN03 1-440, looked up)
chain: T1 chain with R286K
notes: UV … LOCUS8 (UVR8), Arabidopsis thaliana; Sub-cloned into pEZR(K)L-C downstream of eGFP; also called line 2-3; source: transgenic Arabidopsis uvr8-1 plants (CaMV 35S promoter), in whole cell extract; not shown: eGFP, N-terminal, kept
Turning to B7, in data set [6], the “stoichiometry N” value was determined as 2.

For orientation: stoichiometry N means a count of units in the complex or per binding partner.
